In patent US11162087B2, “Beta-glucosidase, enzyme composition including same, and method for manufacturing sugar solution using same” (RIKEN, priority 2017, dated 2021):

B1: partially purified β-glucosidase: His-tag purified elution fraction of SEQ ID NO: 1 β-glucosidase from E. coli cell-free extract, buffer exchanged (Example 7) (protein, listed as Pseudotrichonympha grassii)
chain: QIEGLINVMTLEEKVGQMAQLAIDLFIDVPTDTVIPEAARKGIIDYKIGSILNTYGGVSHSKEVWTYINAEFYKYTEETDLKIPILYGLDSIHGANFVNNFTSFPQQIGMAATFNPSLLKEGSRISAYETRAASVGWVFSPVMDLGLDPRWPRIWEGFGEDPYLSSQFGIASVHGFQGKDPNLIDEFHVAACAKHYLAYSNPFTGKDRTPAILSDIFIREYHLPSFKAAVDAGVASVMVNSGLINGIPTHMNHYLLTTVLKEELGFQGVIVTDWQDIENIHTRDHLAPTQKDAVKLAINAGIDMSMIPYNYDFIDYLIELVHEGEVSIDRINDAVRRILKMKAKMNLWDLPVTKSEDYPEFGSEAHANASYTAASESITLLKNENSTLPLAKNTKVLVVGPNSNSHRSLNGGWSYSWQGNAGVQYAVQYNTIYQAIQKVNGEENTVFSQGVRYIETGNYYEDEEVNISESVALARDVDYIILALGENTYTEKPGDLSDLEISQNQIDLAKALASTGKPIILVLNQGRPRIISRIEQLVSAILWIYWPGNYGGDALADILFGDVNPSGKLPVTYPRYSASLITYWHKYAEEQVGQPGAYDYSSDYNPLWEFGYGLSYTTFNYSNLSVPSTSGMRDVIPVSVLVKNTGEVAGKEVVLLFTSDLYASLAPDVKRLRKFTKILLQPGEEQLVSFNLTSSDLSFIDAQSRRVTETGDFEIKIGGLKGKVTLT
modifications: His-tag
B2: β-glucosidase of the present invention (SEQ ID NO: 1): Polypeptide of SEQ ID NO: 1 from Pseudotrichonympha grassii; in Tables 12/13 measured as the Example 10 composition with Trichoderma cellulase (protein, listed as Pseudotrichonympha grassii)
chain: B1 chain
B3: Mutant 1: His-tagged polypeptide of SEQ ID NO: 6, 88% identity with SEQ ID NO: 1; tested as cell-free extract of transformed E. coli (protein)
chain: QIEGLINVMTLEEKVGQMAQLAIDLFIDVPTDTVIPEAARKGIIDYKIGSILNTYGGVSHSKEVWTYINAEFYKYTEETDLKIPILYGLDSIHGANFVNNFTSFPQQIGMAATFNPSLLKEGSRISAYETRAASVGWVFSPVMDLGLDPRWPRIWEGFGEDPYLSSQFGIASVHGFQGKDPNLIDEFHVAACAKHYLAYSNPFTGKDRTPAILSDIFIREYHLPSFKAAVDAGVASVMVNSGLINGIPTHMNHYLLTTVLKEELGFQGVIVTDWQDIENIHTRDHLAPTQKDAVKLAINAGIDMSMIPYNYDFIDYLIELVHEGEVSIDRINDAVRRILKMKAKMNLWDLPVTKSEDYPEFGSEAHANASYTAASESITLLKNENSTLPLAKNTKVLVVGPNSNSHRSLNGGWSYSWQGNAGVQYAVQYNTIYQAIQKVNGEENTVFSQGVRYIETGNYYEDEEVNISESVALARDVDYIILALGENTYTEKPGDLSDLEISQNQIDLAKALASTGKPIILVLNQGRPRIISRIEQLVSAILWIYWPGNYGGDALADILFGDVNPSGKLPVTYPRYSASLNTRIVSGGSDSFSEGLFIDYKHFDDANITPRYEFGYGLSYTKFNYSRLSVLSTAKSGPATGAVVPGGPSDLFQNVATVTVDIANSGQVTGAEVAQLYITYPSSAPRTPPKQLRGFAKLNLTPGQSGTATFNIRRRDLSYWDTASQKWVVPSGSFGISVGASSRDIRLTSTLSVA
modifications: His tag; amino acid sequence having 88% sequence identity with amino acid sequence of SEQ ID NO 1
notes: tested as cell-free extract of transformed E. coli
B4: Comparative Example 1: β-glucosidase derived from the genus Aspergillus filamentous fungus: Aspergillus β-glucosidase (SEQ ID NO: 10) expressed in Trichoderma reesei; measured as enzyme composition … (protein, listed as Aspergillus aculeatus)
chain: DELAFSPPFYPSPWANGQGEWAEAYQRAVAIVSQMTLDEKVNLTTGTGWELEKCVGQTGGVPRLNIGGMCLQDSPLGIRDSDYNSAFPAGVNVAATWDKNLAYLRGQAMGQEFSDKGIDVQLGPAAGPLGRSPDGGRNWEGFSPDPALTGVLFAETIKGIQDAGVVATAKHYILNEQEHFRQVAEAAGYGFNISDTISSNVDDKTIHEMYLWPFADAVRAGVGAIMCSYNQINNSYGCQNSYTLNKLLKAELGFQGFVMSDWGAHHSGVGSALAGLDMSMPGDITFDSATSFWGTNLTIAVLNGTVPQWRVDDMAVRIMAAYYKVGRDRLYQPPNFSSWTRDEYGFKYFYPQEGPYEKVNHFVNVQRNHSEVIRKLGADSTVLLKNNNALPLTGKERKVAILGEDAGSNSYGANGCSDRGCDNGTLAMAWGSGTAEFPYLVTPEQAIQAEVLKHKGSVYAITDNWALSQVETLAKQASVSLVFVNSDAGEGYISVDGNEGDRNNLTLWKNGDNLIKAAANNCNNTIVVIHSVGPVLVDEWYDHPNVTAILWAGLPGQESGNSLADVLYGRVNPGAKSPFTWGKTREAYGDYLVRELNNGNGAPQDDFSEGVFIDYRGFDKRNETPIYEFGHGLSYTTFNYSGLHIQVLNASSNAQVATETGAAPTFGQVGNASDYVYPEGLTRISKFIYPWLNSTDLKASSGDPYYGVDTAEHVPEGATDGSPQPVLPAGGGSGGNPRLYDELIRVSVTVKNTGRVAGDAVPQLYVSLGGPNEPKVVLRKFDRLTLKPSEETVWTTTLTRRDLSNWDVAAQDWVITSYPKKVHVGSSSRQLPLHAALPKVQ
notes: measured as enzyme composition with Trichoderma cellulase

Assays:
[1] = β-glucosidase activity measurement with pNP-Glc; assay type: biochemical
Description: In the present invention, “β-glucosidase” means an enzyme that catalyzes a reaction for hydrolysis degradation of a sugar β-glucoside bond. In the present invention, a method for measuring a β-glucosidase activity utilizes a reaction using p-nitrophenyl-β-D-glucopyranoside (pNP-Glc) as a substrate. Specifically, an enzyme liquid is added to a substrate solution prepared by dissolving pNP-Glc in 50 mM acetic acid-sodium acetate buffer solution (pH 5.0) and reacted at 30° C. for 10 minutes; and the reaction is stopped by well mixing with 2M sodium carbonate in an amount equivalent to one-tenth of a reaction system volume to measure an increase of the absorbance at 405 nm. When p-nitrophenol is released and the absorbance at 405 nm is increased after the above reaction, it is determined that the β-glucosidase activity is present.
10 μL of an enzyme diluted solution was added to and reacted with 90 μL of 50 mM acetic acid buffer containing 1 mM p-nitrophenyl-β-glucopyranoside (manufactured by Sigma-Aldrich Japan) at 30° C. for 10 minutes. Thereafter, 10 μL of 2M sodium carbonate was added and well mixed to stop the reaction, and an increase of absorbance at 405 nm was measured. The activity to release 1 μmol of p-nitrophenol per minute was defined as 1 U. For a blank, 10 μL of 2M sodium carbonate was added to and well mixed with 90 μL of 50 mM sodium acetate buffer containing 1 mM p-nitrophenyl-β-glucopyranoside, and thereafter, 10 μL of an enzyme diluted solution was added to cause a reaction at 30° C. for 30 minutes. Thereafter, an increase of absorbance at 405 nm was measured. At this time, the enzyme liquid was diluted so as not to exceed an absorbance at 405 nm of 1. In addition, a calibration curve was created based on absorbances measured by preparing p-nitrophenol solutions at concentrations of 0.1 mM, 0.2 mM, 1 mM and 2 mM; using 10 μL of them instead of an enzyme diluted solution; and adding and well mixing 10 μL of 2M sodium carbonate for color development.

[2] = Inhibitory action of glucose on the β-glucosidase activity; assay type: biochemical; details: 1 mM pNP-Glc, 30° C., 100 minutes
Text: The β-glucosidase derived from a protist of the genus Pseudotrichonympha of the present invention is preferably less likely to suffer from inhibition by glucose on the 3-glucosidase activity. Specifically, when the β-glucosidase activity in the absence of glucose is taken unity, the β-glucosidase activity under a condition of a glucose concentration of 8 g/L (or in the presence of 8 g/L glucose) is preferably 0.5 or more, more preferably 0.6 or more, more preferably 0.7 or more, more preferably 0.8 or more, more preferably 0.9 or more, more preferably 1.0 or more, more preferably 1.1 or more, more preferably 1.2 or more, more preferably 1.3 or more, and in particular preferably 1.4 or more. Further, in addition to the β-glucosidase activity under the condition of the glucose concentration of 8 g/L, when the β-glucosidase activity in the absence of glucose is taken as unity, the β-glucosidase activity under a condition of a glucose concentration of 20 g/L (or in the presence of 20 g/L glucose) is preferably 0.5 or more, more preferably 0.6 or more, and in particular preferably 0.7 or more. The method used herein for measuring the β-glucosidase activity is the same as the above-described method except that 8 g/L or 20 g/L of glucose is added at the time of measuring; and results obtained thereby are used.
An enzyme solution was added to a mixture solution containing 1 mM p-nitrophenyl-β-glucopyranoside (manufactured by Sigma-Aldrich Japan), 50 mM acetic acid buffer and 0, 4, 8 or 20 g/L glucose such that the total amount of the reaction solution became 100 μL, causing a reaction at 30° C. for 100 minutes. Thereafter, 10 μL of 2M sodium carbonate was added and well mixed to stop the reaction, and an increase of absorbance at 405 nm was measured. The activity to release 1 μmol of p-nitrophenol per minute was defined as 1 U. For a blank, 10 μL of 2M sodium carbonate was added to an amount, equivalent to that of the above mixture solution for the reaction solution before addition of the enzyme solution, of a mixture solution containing 1 mM p-nitrophenyl-β-glucopyranoside, 50 mM sodium acetate buffer and 0, 4, 8 or 20 g/L glucose, and mixed well; and then, the enzyme solution was added such that the total solution amount of the blank became 110 μL, causing a reaction at 30° C. for 30 minutes. Thereafter, an increase of absorbance at 405 nm was measured.
In accordance with Reference Example 8, the inhibitory action of glucose on the β-glucosidase activity was measured in enzyme compositions: containing the β-glucosidase and the genus Trichoderma filamentous fungus-derived cellulase prepared in Example 10; and the cell-free extract of β-glucosidase mutant gene transformed E. coli prepared in Example 5. For a comparative control, only the genus Trichoderma filamentous fungus-derived cellulase was used, and the inhibitory action of glucose on the β-glucosidase activity was measured in the same manner. […] That is, both of the enzyme composition containing the β-glucosidase of the present invention and the genus Trichoderma filamentous fungus-derived cellulase, and the cell-free extract of β-glucosidase mutant gene transformed E. coli were less likely to suffer from inhibition on the β-glucosidase activity by glucose, compared to only the genus Trichoderma filamentous fungus-derived cellulase, and the enzyme composition of Comparative Example 1 containing the genus Aspergillus filamentous fungus-derived β-glucosidase and the genus Trichoderma filamentous fungus-derived cellulase.

Molecule | β-glucosidase activity per 1 mg of protein ([1]; 1 mM pNP-Glc, 50 mM acetic acid buffer, 30° C., 10 minutes, 1 U = 1 μmol p-nitrophenol per minute) | BGL activity (relative value) in the presence of 8 g/L glucose when BGL activity in the absence of glucose is taken as unity [2] | BGL activity (relative value) in the presence of 20 g/L glucose when BGL activity in the absence of glucose is taken as unity [2] | Increase of absorbance (405 nm) ([1]; cell-free extract, volume reduced to one-twelfth by ultrafilter membrane, detection limit 0.075)
B1 | 3.50 U per 1 mg of protein | – | – | –
B2 | – | 1.49 | 0.94 | –
B3 | – | 0.71 | 0.70 | 0.307
B4 | – | 0.46 | 0.20 | –
